Biological target: NTD (SARS-CoV-2) (UniProt P0DTC9)
Assay: fluorescence anisotropy
Settings: Anisotropy: 50 mM Na phosphate pH 6.5, 150 mM NaCl, 1 mM NaN3, 50 nM RNA; EMSA: 20 mM Tris pH 7.5, 150 mM NaCl, 1 mM DTT, room temp, 25 uM RNA; NTD NMR: 20 mM …

Sequence: GGCACAUGGACGUC / GACGUCCAUGUGCC [ds-14mer]
- Kd: 30 µM

— publication PMC10605006
